Measurements from patent US20110059095A1 (Regeneron, published 2011).
Where no end group is shown, it is not given here. The star is where a group is joined. Biotin = O=C1N[C@H]2[C@H](CS[C@H]2CCCCC(=O)*)N1

T1: Peptide G (rat PAR-2), N-terminal biotinylated (Rat (Rattus norvegicus), N-terminal biotin via G4S linker)
T1 construct: also called Peptide G N-Term
T1 peptide: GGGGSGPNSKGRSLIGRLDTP

T2: Peptide E (mouse PAR-2), N-terminal biotinylated (Mouse (Mus musculus), N-terminal biotin via G4S linker)
T2 construct: also called Peptide E N-Term
T2 peptide: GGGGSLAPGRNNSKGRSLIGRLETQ

T3: C-terminal biotinylated human PAR-2 peptide SEQ ID NO:871 (wild-type) (human, not fully specified; C-terminal biotin (K-B))
T3 construct: also called WT peptide
T3 peptide: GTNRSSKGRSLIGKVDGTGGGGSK

T4: C-terminal biotinylated human PAR-2 peptide SEQ ID NO:878 (Lys-41 to Ala) (human, not fully specified; C-terminal biotin (K-B))
T4 construct: alanine-scan mutant
T4 peptide: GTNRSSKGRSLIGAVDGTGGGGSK

T5: Peptide A (human PAR-2), unbiotinylated (Human)
T5 construct: also called Peptide A No Biotin
T5 peptide: GTNRSSKGRSLIGKVDGT

T6: Peptide C (human PAR-2), N-terminal biotinylated (Human)
T6 construct: also called Peptide C N-Term
T6 peptide: Biotin-GGGGSSLIGKV

T7: Peptide H (rabbit PAR-2) (Rabbit (Oryctolagus cuniculus))
T7 peptide: GTNKTSKGRSLIGRNTGS

T8: Peptide G (rat PAR-2), unbiotinylated (Rat (Rattus norvegicus))
T8 construct: also called Peptide G No Biotin
T8 peptide: GPNSKGRSLIGRLDTP

T9: Peptide I (dog PAR-2) (Dog (Canis familiaris))
T9 peptide: GTNRTSKGRSLIGKTDSS

T10: Peptide E (mouse PAR-2), unbiotinylated (Mouse (Mus musculus))
T10 construct: also called Peptide E No Biotin
T10 peptide: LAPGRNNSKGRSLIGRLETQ

T11: Peptide G (rat PAR-2), C-terminal biotinylated (Rat (Rattus norvegicus), C-terminal biotin via G4S linker)
T11 construct: also called Peptide G C-Term
T11 peptide: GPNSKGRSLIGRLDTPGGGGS

T12: Peptide K (human PAR-1), unbiotinylated (Human)
T12 peptide: ATNATLDPRSFLLRNPND

T13: Peptide M (human PAR-4), unbiotinylated (Human)
T13 peptide: ESGSTGGGDDSTPSILPAP

T14: Peptide L (human PAR-3), unbiotinylated (Human)
T14 peptide: DTNNLAKPTLPIKTFRGA


Legend:
[1] = target: T1, Peptide G (rat PAR-2), N-terminal …; experiment: SPR, peptide immobilized
[2] = target: T2, Peptide E (mouse PAR-2), N-terminal …; experiment: SPR, peptide immobilized
[3] = target: T3, C-terminal biotinylated human PAR-2 …; experiment: BLI Exp1
Procedure: (§1) In order to more particularly identify the amino acids of PAR-2 with which the PAR-2 antibodies interact, an alanine scanning study was carried out using peptides comprising the activating PAR-2 protease cleavage site.
(§2) The ability of each peptide mutant to bind to PAR-2 antibodies was measured using biolayer interferometry (Octet Red; ForteBio). Each peptide (2.5 μg/ml) was captured on streptavidin coated biosensor tips (Octet SA sensor) for 10 seconds. To measure binding and dissociation between each peptide and PAR-2 antibody, the peptide-coated biosensors were contacted with 200 nM solutions of PAR-2 antibodies for 5 minutes (binding) followed by transfer to buffer with no antibody for 10 min (dissociation). […] The results are expressed as percent binding and percent T_{1/2} relative to WT peptide (Tables 24-28).

[4] = target: T4, C-terminal biotinylated human PAR-2 …; experiment: BLI Exp1
Procedure: as §1, §2

[5] = target: T5, Peptide A (human PAR-2), unbiotinylated; experiment: SPR, antibody captured
[6] = target: T6, Peptide C (human PAR-2), N-terminal …; experiment: SPR, peptide immobilized
[7] = target: full length human PAR-2 (human, UniProt P55085 26-397); experiment: cell-based or functional assay
[8] = target: T7, Peptide H (rabbit PAR-2); experiment: SPR, antibody captured
Procedure: (§3) Equilibrium dissociation constants (KD values) for antigen binding to selected purified PAR-2 antibodies were determined by surface kinetics using a real-time surface plasmon resonance biosensor assay. Antibody was captured on either a rabbit anti-mouse IgG polyclonal antibody (GE Healthcare, Piscataway, N.J.) surface or a goat anti-human IgG polyclonal antibody (Jackson Immuno Research Lab, West Grove, Pa.) surface created through direct amine chemical coupling to a BIACORE™ CM5 sensor chip to form a captured antibody surface. […] Antigen-antibody binding and dissociation were monitored in real time at room temperature. Kinetic analysis was performed to calculate KD and half-life of antigen/antibody complex dissociation (Table 10). For those antibodies where no T_{1/2} value is shown, steady state analysis was used to calculate the KD value. NB: no binding observed under current experimental conditions. ND: not determined.

[9] = target: T8, Peptide G (rat PAR-2), unbiotinylated; experiment: SPR, antibody captured
Procedure: as §3

[10] = target: T9, Peptide I (dog PAR-2); experiment: SPR, antibody captured
Procedure: as §3

[11] = target: T10, Peptide E (mouse PAR-2), unbiotinylated; experiment: peptide ELISA titration; ELISA titration, bivalent IgG on peptide-coated plate
Procedure: (§4) Anti-PAR-2 antibodies were tested for their ability to bind to the PAR-2 peptides. Various PAR-2 Peptides (Table 3) were coated onto 96-well plates at a concentration of 2 μg/ml and incubated overnight followed by blocking in a suitable blocking agent for one hour. […] Purified anti-PAR-2 antibodies were added to the plate coated with PAR-2 peptides to a final concentration ranging from 0.2 to 2.0 μg/ml and incubated for one hour at room temperature. Detection of bound antibodies was determined with Horse-Radish Peroxidase (HRP) conjugated anti-mouse or human IgG (Jackson Immuno Research Lab, West Grove, Pa.) and developed by standard colorimetric response using tetramethylbenzidine (TMB) substrate. Absorbance was read at OD₄₅₀ for 0.1 second.
(§5) In another experiment, selected anti-PAR-2 antibodies cloned onto human IgG4 were tested for binding to unbiotinylated and biotinylated forms of PAR-2 peptides (Peptides A, E, F and G; as described above). […] Absorbance values at 450 nm were analyzed using a sigmoidal dose-response model in GraphPad Prism (GraphPad Software, Inc., La Jolla, Calif.) and EC₅₀ values were reported (Table 9). EC₅₀ values are defined as the antibody concentration required to achieve 50% maximal binding to PAR-2 peptide.

[12] = target: T8, Peptide G (rat PAR-2), unbiotinylated; experiment: peptide ELISA titration
Procedure: as §4, §5

[13] = target: T1, Peptide G (rat PAR-2), N-terminal …; experiment: peptide ELISA titration
Procedure: as §4, §5

[14] = target: T11, Peptide G (rat PAR-2), C-terminal …; experiment: peptide ELISA titration
Procedure: as §4, §5

[15] = target: T2, Peptide E (mouse PAR-2), N-terminal …; experiment: peptide ELISA titration
Procedure: as §4, §5

[16] = target: T12, Peptide K (human PAR-1), unbiotinylated; experiment: SPR, antibody captured
[17] = target: T13, Peptide M (human PAR-4), unbiotinylated; experiment: SPR, antibody captured
[18] = target: T14, Peptide L (human PAR-3), unbiotinylated; experiment: SPR, antibody captured

full length human PAR-2, sequence (P55085 26-397 G138A limits assumed): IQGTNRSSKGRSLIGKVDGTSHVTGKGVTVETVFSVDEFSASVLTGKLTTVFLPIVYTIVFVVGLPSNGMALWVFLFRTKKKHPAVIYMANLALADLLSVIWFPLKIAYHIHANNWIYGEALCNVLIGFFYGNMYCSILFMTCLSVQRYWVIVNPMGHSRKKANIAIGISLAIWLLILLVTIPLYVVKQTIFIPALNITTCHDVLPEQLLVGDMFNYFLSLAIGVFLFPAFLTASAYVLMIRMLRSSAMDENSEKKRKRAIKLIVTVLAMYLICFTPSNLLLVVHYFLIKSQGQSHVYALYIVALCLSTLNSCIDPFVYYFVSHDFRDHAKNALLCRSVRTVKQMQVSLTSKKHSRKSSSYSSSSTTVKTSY

| Kd [1] | T1/2 [1] | Kd [2] | T1/2 [2] | Kd [5] | T1/2 [5] | Kd [9] | T1/2 [9] | Kd [10] | T1/2 [10] | EC50 [12] | EC50 [13] | EC50 [14] | EC50 [15] | Binder | other results |
| --- | --- | --- | --- | --- | --- | --- | --- | --- | --- | --- | --- | --- | --- | --- | --- |
| 0.354 nM | 62 min | 1.13 nM | 21 min | 9.44 nM | 1.4 min | 40.2 nM | 0.63 min | 143 nM | 0.07 min | 0.02 nM | 0.019 nM | 0.013 nM | 0.032 nM | H4H581P (antibody, human IgG4, V domains shown, also called mAb H4H581P; H1H581P variable regions) VH: QVQLVESGGGVVQPGRSLRLSCVASGFTFSRYGIHWVRQAPGKGLEWVIVISYDGINKYYADSVKGRFTISRDNSKNTVYLQMNSLRAEDTAVYYCAKGDFWSGYFDYWGQGTLVTVSS VL: DIVMTQTPLSSPVTLGQPASISCRSSQSLVHSDGNTYLSWLHQRPGQPPRLLIYKISNRFSGVPDRFSGSGAGTDFTLQISRVEAEDVGIYYCMQATQFPTFGGGTKVEIK | % Rel Binding [3]: 100%; % Rel T1/2 [3]: 100%; % Rel Binding [4]: 113%; % Rel T1/2 [4]: 63%; Kd [6]: > 100 nM; IC50, calcium mobilization FLIPR, 100 nM Trypsin [7]: 55 nM; binding result [8]: no binding; EC50 [11]: 0.029 nM |
| 1.36 nM | 35 min | > 100 nM | – | 8.78 nM | 3.7 min | 162 nM | 0.33 min | 372 nM | 0.19 min | 0.018 nM | 0.017 nM | 0.021 nM | 0.189 nM | H4H585P (antibody, human IgG4, V domains shown, also called H1H585P variable regions) VH: QVQLVESGGGVVQPGRSLRLSCVASGFTFSRYGMHWVRQAPGKGLEWLIVISYDGINKYYADSVKGRFTISRDNSKNTVYLQMNSLRAEDTAVYYCAKGDFWSGYFDYWGQGTLVTVSS VL: DIVMTQTPLSSPVTLGQPASISCRSSQSLVHSDGNTYLSWLHQRPGQPPRLLIYKISNRFSGVPDRFSGSGAGTDFTLQISRVEAEDVGIYYCMQGTQFPTFGGGTKVEIK | – |
| 1.16 nM | 38 min | 3.4 nM | 20 min | 15 nM | 4 min | 134 nM | 0.45 min | 311 nM | 0.26 min | 0.055 nM | 0.059 nM | 0.044 nM | 0.54 nM | H4H579P (antibody, human IgG4, V domains shown, also called H1H579P variable regions) VH: QVQLVESGGGVVQPGRSLRLSCVASGFTFSRYGMHWVRQAPGKGLEWLIVISYDGINKYYADSVKGRFTISRDNSKNTVYLQMNSLRAEDTGVYYCAKGDFWSGYFDYWGQGTLVTVSS VL: DIVMTQTPLSSPVTLGQPASISCRSSQSLVHSDGNTYLSWLHQRPGQPPRLLIYKISNRFSGVPDRFSGSGAGTDFTLQISRVEAEDVGIYYCMQGTQFPTFGGGTKVEIK | binding result [16]: no binding; binding result [17]: no binding; binding result [18]: no binding; binding result [6]: no binding |
